This experiment deals with GST-tagged B′γ1 regulatory subunit (UniProt Q13362). The experiment in a line: pull-down; 10 μg GST-tagged B′γ1 immobilised; titrated concentrations of phosphorylated or non-phosphorylated Cyk4 (1–177).

The substance “pCyk4 (1–177), Plk1-phosphorylated (from UniProt Q9H0H5 1-177) (domain or fragment)” had a concentration at half maximum binding of 2.5 to 5 µM and a lowest concentration at which the interaction is detected of 0.6 µM.
